These results are taken from publication PMC10092738, “Structural insights into the mechanism of adaptive ribosomal modification by Pseudomonas RimK” (Proteins, 2022).

Data set [1] has as its target T1, RimKPS (Pseudomonas syringae group genomosp. 3, UniProt Q88AZ9).
T1 construct: gene rimK; full ORF in pET29a, C-terminal hexahistidine tag, E. coli BL21 (DE3) pLysS; tetramer
T1 sequence (Q88AZ9 1-301): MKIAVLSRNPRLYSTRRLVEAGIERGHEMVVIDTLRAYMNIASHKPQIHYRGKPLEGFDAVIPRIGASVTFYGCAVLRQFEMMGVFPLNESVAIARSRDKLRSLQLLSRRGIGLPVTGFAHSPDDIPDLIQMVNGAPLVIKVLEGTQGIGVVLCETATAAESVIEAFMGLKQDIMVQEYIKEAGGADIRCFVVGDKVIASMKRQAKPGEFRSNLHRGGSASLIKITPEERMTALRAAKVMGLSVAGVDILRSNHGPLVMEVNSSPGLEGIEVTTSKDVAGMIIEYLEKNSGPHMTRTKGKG
Put plainly: PK/LDH-coupled ATPase assay, NADH oxidation at […] nm. Type of data set: biochemical. Particulars: activator; 25 uM cdG, 1.5 uM RimK, ATP as substrate; pH 9.0, 20 mM MgSO4, 25 C.

Data set [2] addresses T2, RimKPA (Pseudomonas aeruginosa, UniProt Q9HTZ2).
T2 construct: gene rimK; full ORF in pET29a, C-terminal hexahistidine tag, E. coli BL21 (DE3) pLysS; tetramer
T2 sequence (Q9HTZ2 1-301): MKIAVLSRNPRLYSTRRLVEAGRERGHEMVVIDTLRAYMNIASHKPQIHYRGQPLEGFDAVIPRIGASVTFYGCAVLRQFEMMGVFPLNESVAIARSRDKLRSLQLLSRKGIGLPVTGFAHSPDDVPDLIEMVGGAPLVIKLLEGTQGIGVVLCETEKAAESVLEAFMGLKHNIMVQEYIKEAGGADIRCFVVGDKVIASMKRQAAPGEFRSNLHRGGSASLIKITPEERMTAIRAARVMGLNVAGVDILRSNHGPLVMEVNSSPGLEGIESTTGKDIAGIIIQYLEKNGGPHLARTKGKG
The data set is described as above. Particulars: activator; 25 uM cdG, 2.5 uM RimK, ATP as substrate; pH 9.0, 20 mM MgSO4, 25 C. The class given is biochemical.

Data set [3] deals with P. aeruginosa PAO1 RimK (P. aeruginosa PAO1) (UniProt B7V3U4). Briefly: crystal structure; RimKPA at 17 mg/ml, sitting-drop vapor diffusion at 293 K, 0.2 M potassium sodium tartrate, 0.1 M bis-tris propane pH 7.5, 20% PEG 3350; 2.4 Å, P2(1), eight copies in the asymmetric unit.
Data set [4] deals with P. syringae pv. tomato DC3000 RimK (P. syringae pv. tomato DC3000) (UniProt Q88AZ9).
Data set [5] addresses T2, RimKPA. Briefly: X-ray crystal structure, […] A. Particulars: ATP binding site; co-purified from expression host; weak density, interpreted as ADP.
Substrate in data set [6]: Nc1ncnc2c1ncn2[C@@H]1O[C@H](COP(=O)(O)OP(=O)(O)OP(=O)(O)O)[C@@H](O)[C@H]1O
Briefly: purified protein. The class given is biochemical, Pseudomonas fluorescens. The conditions noted are these: 100 mM Tris-HCl pH 9.0, 20 mM MgSO4, 25 C, 1.5 uM RimK, no RimB.

Substrate in data set [7]: Nc1ncnc2c1ncn2[C@@H]1O[C@H](COP(=O)(O)OP(=O)(O)OP(=O)(O)O)[C@@H](O)[C@H]1O
Briefly: purified protein. Particulars: 100 mM Tris-HCl pH 9.0, 20 mM MgSO4, 25 C, 1.5 uM RimK, no RimB.

Data set [8] concerns the molecule itself. Put plainly: crystal structure; RimKPS at 3.7 mg/ml, sitting-drop vapor diffusion at 293 K, 0.2 M calcium chloride, 0.1 M HEPES pH 7.0, 20% PEG6000; ATP and cdG in the cryoprotectant; 2.9 Å, P1, 16 copies in the asymmetric unit.

Take `Nc1nc2c(ncn2[C@@H]2O[C@@H]3COP(=O)(O)O[C@H]4[C@@H](O)[C@H](n5cnc6c(=O)[nH]c(N)nc65)O[C@@H]4COP(=O)(O)O[C@H]3[C@H]2O)c(=O)[nH]1` [cyclic-di-GMP]: the “PK/LDH-coupled ATPase assay, NADH oxidation at 340 nm” value in data set [1] and in data set [2] was “the addition of cdG stimulated ATPase activity for both proteins” each time.

For the molecule “P. aeruginosa PAO1 RimK (from UniProt B7V3U4 1-301) (enzyme)”, the stoichiometry N (commonly a count of units in the complex or per binding partner) in data set [3] stood at 4.

In the case of RimB of P. syringae (enzyme), in data set [4], the RimKPS ATPase activity (linked PK/LDH assay) against RimBPS 0–1.2 mM, fitted K m amounted to 120 µM and the RimKPS ATPase activity (linked PK/LDH assay) against RimBPS 0–1.2 mM, fitted V max came to 692.

Take `Nc1ncnc2c1ncn2[C@@H]1O[C@H](COP(=O)(O)OP(=O)(O)O)[C@@H](O)[C@H]1O` [ADP]: the “X-ray crystal structure, 2.4 A” value in data set [5] was “ADP and glutamate, of presumed cellular origin, were resolved in the RimKPA structure”.

B1: RimKPF (Pseudomonas [fluorescens] SBW25) (protein)
chain: MKIAVLSRNPRLYSTRRLVEAGVERGHEMVVIDTLRAYMNIASHKPQIHYRGKPLEGFDAVIPRIGASVTFYGCAVLRQFEMMGVFPLNESVAIARSRDKLRSLQLLSRRGIGLPVTGFAHSPDDIPDLIDMVNGAPLVIKVLEGTQGIGVVLCETATAAESVIEAFMGLKQNIMVQEYIKEAGGADIRCFVVGDKVIAAMKRQAKPGEFRSNLHRGGSASLIKITPEERMTALRAAKVMGLSVAGVDILRSNHGPLVMEVNSSPGLEGIETTTGKNVAGIIIEHLEKNGGPNMTRTKGKG
notes: purified recombinant RimK
For the molecule B1, the Km (in general, the substrate concentration at which the rate is half of its maximum) in data set [6] stood at 800 µM.

B2: RimKPA (Pseudomonas aeruginosa PAO1) (protein)
chain: MKIAVLSRNPRLYSTRRLVEAGRERGHEMVVIDTLRAYMNIASHKPQIHYRGQPLEGFDAVIPRIGASVTFYGCAVLRQFEMMGVFPLNESVAIARSRDKLRSLQLLSRKGIGLPVTGFAHSPDDVPDLIEMVGGAPLVIKLLEGTQGIGVVLCETEKAAESVLEAFMGLKHNIMVQEYIKEAGGADIRCFVVGDKVIASMKRQAAPGEFRSNLHRGGSASLIKITPEERMTAIRAARVMGLNVAGVDILRSNHGPLVMEVNSSPGLEGIESTTGKDIAGIIIQYLEKNGGPHLARTKGKG
In the case of B2, the Km in data set [7] (a separate series in Figure S1 prints K m = 2.1 mM) was 300 µM.

B3: P. syringae pv. tomato DC3000 RimK (enzyme, UniProt Q88AZ9 1-301, looked up)
chain: MKIAVLSRNPRLYSTRRLVEAGIERGHEMVVIDTLRAYMNIASHKPQIHYRGKPLEGFDAVIPRIGASVTFYGCAVLRQFEMMGVFPLNESVAIARSRDKLRSLQLLSRRGIGLPVTGFAHSPDDIPDLIQMVNGAPLVIKVLEGTQGIGVVLCETATAAESVIEAFMGLKQDIMVQEYIKEAGGADIRCFVVGDKVIASMKRQAKPGEFRSNLHRGGSASLIKITPEERMTALRAAKVMGLSVAGVDILRSNHGPLVMEVNSSPGLEGIEVTTSKDVAGMIIEYLEKNSGPHMTRTKGKG
notes: RimK, ATP-dependent glutamate ligase, P. syringae pv. tomato DC3000; open reading frame of rimK cloned into pET29a; Tetramer in the crystal; 16 copies in the asymmetric unit; also called RimKPS; RimKPs; source: E. coli BL21 (DE3) pLysS, purified (His-Trap Excel column)
For B3, the “stoichiometry N” value in data set [8] worked out at 4. Further, the Km in data set [7] (a separate series in Figure S1 prints K m = 1.85 mM) came out at 1000 µM.
